In publication PMC3026807:

Target: Arg224 (UniProt position 224, YHALYRYFVEL)
Assay: electrophysiology

Q: Which pKa (pHo-gated channel, closed to open on alkalinization, non-concatenated WT, cited from earlier work) does the source give for “TASK-2 (K2P5.1, KCNK5) two-pore-domain potassium channel (Mus musculus)” here?
A: 8.0

Q: Which pKa (Bath (mM): 67.5 Na2SO4, 4 KCl, 1 K gluconate, 2 CaCl2, 1 MgCl2, 105 sucrose (standard solution). The article does not state explicitly which bath was used for Figure 5. Pipette: 140 mM KCl., 10 mM Hepes/Tris, MES for pH 5.0-6.5, AMPSO for pH 8.5-9.0, CAPS for pH 9.5-11.0, concatenated WT-WT channel, pHo gating) does the source give for “TASK-2 WT-WT concatenated tandem dimer (Mus musculus; deletion of the C-terminal 148 residues (after V354) in the first protomer; insertion of L355-D356 linker; no substitution at R224 in either protomer)” here?
A: 8.2±0.15
